Data as given in PMC7954794, “Protein context shapes the specificity of SH3 domain-mediated interactions in vivo” (Nature Communications, 2021).

How the values were obtained:
Assay type in all cases: cell-based, Saccharomyces cerevisiae
[1] = system: BBC1; test: DHFR-PCA on solid medium, bait BBC1 (Fig. 1B); conditions: bait BBC1, label = prey
Description: Supplement 41467_2021_21873_MOESM8_ESM.xlsx, sheet "Fig1B" | column: medsize; medrep; Ratio; Score

[2] = system: PPIs identified as affected by the SH3 domain deletions; test: Liquid DHFR-PCA low-throughput validation of PPIs affected by SH3 deletion (Fig. S1D-E); conditions: Deletedscore/WTscore
In short: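 Yeast diploids from DHFR-PCA mating grown 48 h in synthetic complete MSG medium pH 6.0 with NAT and HPH, normalized to 1 OD and diluted to 0.1 OD in liquid PCA selection medium. Growth followed by OD every 15 min for 72 h at 30 °C.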

[3] = system: Hua2; test: Deep mutational scanning of Abp1 SH3, Abp1-Hua2 DHFR-PCA (DMS score); conditions: Abp1-Hua2 DHFR-PCA; WT = 0; Fig. S3C-D
In short: (§1)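 Saturation mutagenesis (NNN per codon) of Abp1 SH3, reintegrated at the genomic locus in yeast and mated with Hua2- or Lsb3-DHFR F[3] prey strains. Diploids underwent two rounds of liquid DHFR-PCA selection (72 h each, 30 °C), in biological duplicate. Mutant abundance was tracked by Illumina sequencing against the pre-selection reference.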

[4] = system: Lsb3; test: Deep mutational scanning of Abp1 SH3, Abp1-Lsb3 DHFR-PCA (DMS score); conditions: Abp1-Lsb3 DHFR-PCA; WT = 0; Fig. S3C-D
In short: as §1

B1: YBL039C (protein, UniProt P28274 1-579, looked up)
CTP synthase 1: MKYVVVSGGVISGIGKGVLASSTGMLMKTLGLKVTSIKIDPYMNIDAGTMSPLEHGECFVLDDGGETDLDLGNYERYLGVTLTKDHNITTGKIYSHVIAKERKGDYLGKTVQIVPHLTNAIQDWIERVAKIPVDDTGMEPDVCIIELGGTVGDIESAPFVEALRQFQFKVGKENFALIHVSLVPVIHGEQKTKPTQAAIKGLRSLGLVPDMIACRCSETLDKPTIDKIAMFCHVGPEQVVNVHDVNSTYHVPLLLLEQKMIDYLHARLKLDEISLTEEEKQRGLELLSKWKATTGNFDESMETVKIALVGKYTNLKDSYLSVIKALEHSSMKCRRKLDIKWVEATDLEPEAQESNKTKFHEAWNMVSTADGILIPGGFGVRGTEGMVLAARWARENHIPFLGVCLGLQIATIEFTRSVLGRKDSHSAEFYPDIDEKNHVVVFMPEIDKETMGGSMRLGLRPTFFQNETEWSQIKKLYGDVSEVHERHRHRYEINPKMVDELENNGLIFVGKDDTGKRCEILELKNHPYYIATQYHPEYTSKVLDPSKPFLGLVAASAGILQDVIEGKYDLEAGENKFNF
- medrep (log2 median colony size normalized to plate background, PCA score) ([1]; 2-4 replicates): 2.387
- Ratio (SH3-deleted/WT medrep) ([1]; only significant differences showed, PPIs completely lost have a ratio of 0.1 and the gained PPIs 2.5): 0.1

B2: SHO1 (protein, UniProt P40073 1-367, looked up)
High osmolarity signaling …: MSISSKIRPTPRKPSRMATDHSFKMKKFYADPFAISSISLAIVSWVIAIGGSISSASTNESFPRFTWWGIVYQFLIICSLMLFYCFDLVDHYRIFITTSIAVAFVYNTNSATNLVYADGPKKAAASAGVILLSIINLIWILYYGGDNASPTNRWIDSFSIKGIRPSPLENSLHRARRRGNRNTTPYQNNVYNDAIRDSGYATQFDGYPQQQPSHTNYVSSTALAGFENTQPNTSEAVNLHLNTLQQRINSASNAKETNDNSNNQTNTNIGNTFDTDFSNGNTETTMGDTLGLYSDIGDDNFIYKAKALYPYDADDDDAYEISFEQNEILQVSDIEGRWWKARRANGETGIIPSNYVQLIDGPEEMHR
- Ratio ([2]; prey YJL128C_1): 0.6814
- Ratio ([2]; prey YOR042W_1): 0.502

B3: WT (protein, UniProt P15891 2-592, looked up)
Actin-binding protein: ALEPIDYTTHSREIDAEYLKIVRGSDPDTTWLIISPNAKKEYEPESTGSSFHDFLQLFDETKVQYGLARVSPPGSDVEKIIIIGWCPDSAPLKTRASFAANFAAVANNLFKGYHVQVTARDEDDLDENELLMKISNAAGARYSIQTSSKQQGKASTPPVKKSFTPSKSPAPVSKKEPVKTPSPAPAAKISSRVNDNNDDDDWNEPELKERDFDQAPLKPNQSSYKPIGKIDLQKVIAEEKAKEDPRLVQKPTAAGSKIDPSSDIANLKNESKLKRDSEFNSFLGTTKPPSMTESSLKNDDDKVIKGFRNEKSPAQLWAERKAKQNSGNAETKAEAPKPEVPEDEPEGEPDVKDLKSKFEGLAASEKEEEEMENKFAPPPKKSEPTIISPKPFSKPQEPVKAEEAEQPKTDYKKIGNPLPGMHIEADNEEEPEENDDDWDDDEDEAAQPPLPSRNVASGAPVQKEEPEQEEIAPSLPSRNSIPAPKQEEAPEQAPEEEIEEEAEEAAPQLPSRSSAAPPPPPRRATPEKKPKENPWATAEYDYDAAEDNELTFVENDKIINIEFVDDDWWLGELEKDGSKGLFPSNYVSLGN
- DMS score Hua2 [3]: 0
- DMS score Lsb3 [4]: 0
